Test [1] concerns the target F5/8C module of LamA (Paenibacillus β-1,3-glucanase), residues 1636-1793 (Paenibacillus sp. BCRC 17245). The test can be described thus: cross-linking; protein 0.65 mg/mL, 0.05% glutaraldehyde, room temperature, 1 h, 12% SDS-PAGE.
Test [2] has the same target. Description: SEC; Sephacryl S-300 gel filtration column (Hiprep 16/60), 10 mM sodium acetate pH 5.8, 10% glycerol; monomer to dimer. (SEC sorts molecules by how far they enter the pores of the column.)
Test [3] has the same target. Description: AUC; sedimentation velocity, 20°C, 42000 rpm, protein 0.17 mg/mL in 10 mM phosphate pH 7.0, 10% glycerol; c(s) by Sedfit94; monomer to dimer.

Usually stoichiometry N stands for the number of molecules, sites or subunits per partner or assembly. Turning to “F5/8C module of LamA (Paenibacillus β-1,3-glucanase), residues 1636-1793 (domain or fragment)”, the stoichiometry N in test [1], in test [2] and in test [3] was 2 throughout. Besides, the dimer fraction in test [2] and in test [3] was 15% in each case.

The record behind these values is publication PMC2789033.
